Reference: patent US20150087577A1 (POLYPHOR, published 2015)
*1 amine or outer side, *2 acyl side, *3 side chain or, on linkers, in order; H or OH if unused. Bridges are numbered along the chain shown (N, C = ends). Primed or numbered codes have the meaning given here. [ ]: non-standard residue; d: D form. A8″‑42 = template L-Pro residue whose 4-amino group is acylated with CH3-(OCH2CH2)2-OCH2-CO (2-[2-(2-methoxyethoxy)ethoxy]acetyl), per the notes; IsOrn = L-(N',N'-diisobutyl)-ornithine, CC(C)CN(CCC[C@H](N[*:1])C(=O)[*:2])CC(C)C; N(3-imidazol-1-ylpropyl)Gly = O=C(O)CNCCCn1ccnc1; Phe(4-F) = N[C@@H](Cc1ccc(F)cc1)C(=O)O; 2Nal = N[C@@H](Cc1ccc2ccccc2c1)C(=O)O; 4Pal = N[C@@H](Cc1ccncc1)C(=O)O; Cit = NC(=O)NCCC[C@H](N)C(=O)O; Orn = NCCC[C@H](N)C(=O)O

Biological target: human CXCR4 (human, UniProt P61073 1-352)
Test: cell-based or functional assay

Chain of human CXCR4 (P61073 whole entry): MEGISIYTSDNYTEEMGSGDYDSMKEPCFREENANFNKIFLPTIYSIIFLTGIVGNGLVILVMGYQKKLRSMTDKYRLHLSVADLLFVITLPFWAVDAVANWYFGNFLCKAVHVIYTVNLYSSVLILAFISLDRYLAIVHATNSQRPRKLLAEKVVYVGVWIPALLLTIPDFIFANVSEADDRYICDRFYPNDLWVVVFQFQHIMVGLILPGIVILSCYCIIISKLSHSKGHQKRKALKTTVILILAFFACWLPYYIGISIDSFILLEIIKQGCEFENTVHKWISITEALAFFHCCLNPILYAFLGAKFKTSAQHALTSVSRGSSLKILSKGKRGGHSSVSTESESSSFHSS

| Binder | IC50 (nM) Ca2+ assay (method 2) [nM] | IC50 (nM) Ca2+ assay (method 1) [nM] |
| --- | --- | --- |
| cyclo(YR[Cit]CRG[dP][N(3-imidazol-1-ylpropyl)Gly]R[2Nal]CY[Cit]K[dP]P) (disulfide 4-11; SMILES N=C(N)NCCC[C@@H]1NC(=O)CN(CCCn2ccnc2)C(=O)[C@H]2CCCN2C(=O)CNC(=O)[C@H](CCCNC(=N)N)NC(=O)[C@@H]2CSSC[C@H](NC(=O)[C@H](Cc3ccc4ccccc4c3)NC1=O)C(=O)N[C@@H](Cc1ccc(O)cc1)C(=O)N[C@@H](CCCNC(N)=O)C(=O)N[C@@H](CCCCN)C(=O)N1CCC[C@@H]1C(=O)N1CCC[C@H]1C(=O)N[C@@H](Cc1ccc(O)cc1)C(=O)N[C@@H](CCCNC(=N)N)C(=O)N[C@@H](CCCNC(N)=O)C(=O)N2) [Example 125] | 330 |  |
| cyclo(YHTCRG[dP]RHWCYQK[dP]P) (disulfide 4-11; SMILES C[C@@H](O)[C@@H]1NC(=O)[C@H](Cc2c[nH]cn2)NC(=O)[C@H](Cc2ccc(O)cc2)NC(=O)[C@@H]2CCCN2C(=O)[C@H]2CCCN2C(=O)[C@H](CCCCN)NC(=O)[C@H](CCC(N)=O)NC(=O)[C@H](Cc2ccc(O)cc2)NC(=O)[C@@H]2CSSC[C@H](NC1=O)C(=O)N[C@@H](CCCNC(=N)N)C(=O)NCC(=O)N1CCC[C@@H]1C(=O)N[C@@H](CCCNC(=N)N)C(=O)N[C@@H](Cc1c[nH]cn1)C(=O)N[C@@H](Cc1c[nH]c3ccccc13)C(=O)N2) [Example 120] | 8.1 |  |
| cyclo(GR[Cit]CRG[dP]RR[2Nal]CY[Cit]K[dP]P) (disulfide 4-11; SMILES N=C(N)NCCC[C@@H]1NC(=O)CNC(=O)[C@@H]2CCCN2C(=O)[C@H]2CCCN2C(=O)[C@H](CCCCN)NC(=O)[C@H](CCCNC(N)=O)NC(=O)[C@H](Cc2ccc(O)cc2)NC(=O)[C@@H]2CSSC[C@H](NC(=O)[C@H](CCCNC(N)=O)NC1=O)C(=O)N[C@@H](CCCNC(=N)N)C(=O)NCC(=O)N1CCC[C@@H]1C(=O)N[C@@H](CCCNC(=N)N)C(=O)N[C@@H](CCCNC(=N)N)C(=O)N[C@@H](Cc1ccc3ccccc3c1)C(=O)N2) [Example 114] | 1.3 |  |
| cyclo(YR[Cit]CRG[dP]RRWCY[Cit]K[dP]P) (disulfide 4-11; SMILES N=C(N)NCCC[C@@H]1NC(=O)[C@@H]2CSSC[C@H](NC(=O)[C@H](Cc3c[nH]c4ccccc34)NC(=O)[C@H](CCCNC(=N)N)NC(=O)[C@H](CCCNC(=N)N)NC(=O)[C@H]3CCCN3C(=O)CNC1=O)C(=O)N[C@@H](Cc1ccc(O)cc1)C(=O)N[C@@H](CCCNC(N)=O)C(=O)N[C@@H](CCCCN)C(=O)N1CCC[C@@H]1C(=O)N1CCC[C@H]1C(=O)N[C@@H](Cc1ccc(O)cc1)C(=O)N[C@@H](CCCNC(=N)N)C(=O)N[C@@H](CCCNC(N)=O)C(=O)N2) [Example 123] | 10 |  |
| cyclo(YR[Cit]CRG[dP][Phe(4-F)]RWCY[Cit]K[dP]P) (disulfide 4-11; SMILES N=C(N)NCCC[C@@H]1NC(=O)[C@@H]2CSSC[C@H](NC(=O)[C@H](Cc3c[nH]c4ccccc34)NC(=O)[C@H](CCCNC(=N)N)NC(=O)[C@H](Cc3ccc(F)cc3)NC(=O)[C@H]3CCCN3C(=O)CNC1=O)C(=O)N[C@@H](Cc1ccc(O)cc1)C(=O)N[C@@H](CCCNC(N)=O)C(=O)N[C@@H](CCCCN)C(=O)N1CCC[C@@H]1C(=O)N1CCC[C@H]1C(=O)N[C@@H](Cc1ccc(O)cc1)C(=O)N[C@@H](CCCNC(=N)N)C(=O)N[C@@H](CCCNC(N)=O)C(=O)N2) [Example 122] | 8.8 |  |
| cyclo(YR[Cit]CRG[dP]RRYC[Cit]YK[dP]P) (disulfide 4-11; SMILES N=C(N)NCCC[C@@H]1NC(=O)[C@@H]2CSSC[C@H](NC(=O)[C@H](Cc3ccc(O)cc3)NC(=O)[C@H](CCCNC(=N)N)NC(=O)[C@H](CCCNC(=N)N)NC(=O)[C@H]3CCCN3C(=O)CNC1=O)C(=O)N[C@@H](CCCNC(N)=O)C(=O)N[C@@H](Cc1ccc(O)cc1)C(=O)N[C@@H](CCCCN)C(=O)N1CCC[C@@H]1C(=O)N1CCC[C@H]1C(=O)N[C@@H](Cc1ccc(O)cc1)C(=O)N[C@@H](CCCNC(=N)N)C(=O)N[C@@H](CCCNC(N)=O)C(=O)N2) [Example 113] | 0.62 |  |
| cyclo(YR[Cit]CRG[dP][IsOrn]R[2Nal]CY[Cit]K[dP]P) (disulfide 4-11; SMILES CC(C)CN(CCC[C@@H]1NC(=O)[C@H]2CCCN2C(=O)CNC(=O)[C@H](CCCNC(=N)N)NC(=O)[C@@H]2CSSC[C@H](NC(=O)[C@H](Cc3ccc4ccccc4c3)NC(=O)[C@H](CCCNC(=N)N)NC1=O)C(=O)N[C@@H](Cc1ccc(O)cc1)C(=O)N[C@@H](CCCNC(N)=O)C(=O)N[C@@H](CCCCN)C(=O)N1CCC[C@@H]1C(=O)N1CCC[C@H]1C(=O)N[C@@H](Cc1ccc(O)cc1)C(=O)N[C@@H](CCCNC(=N)N)C(=O)N[C@@H](CCCNC(N)=O)C(=O)N2)CC(C)C) [Example 124] | 5.9 |  |
| cyclo(Y[4Pal]TCRG[dP]RRWCYQK[dP]P) (disulfide 4-11; SMILES C[C@@H](O)[C@@H]1NC(=O)[C@H](Cc2ccncc2)NC(=O)[C@H](Cc2ccc(O)cc2)NC(=O)[C@@H]2CCCN2C(=O)[C@H]2CCCN2C(=O)[C@H](CCCCN)NC(=O)[C@H](CCC(N)=O)NC(=O)[C@H](Cc2ccc(O)cc2)NC(=O)[C@@H]2CSSC[C@H](NC1=O)C(=O)N[C@@H](CCCNC(=N)N)C(=O)NCC(=O)N1CCC[C@@H]1C(=O)N[C@@H](CCCNC(=N)N)C(=O)N[C@@H](CCCNC(=N)N)C(=O)N[C@@H](Cc1c[nH]c3ccccc13)C(=O)N2) [Example 119] | 9.4 |  |
| cyclo(YR[Cit]FRVPRR[2Nal]VY[Cit]K[dP]P) (SMILES CC(C)[C@@H]1NC(=O)[C@H](Cc2ccc3ccccc3c2)NC(=O)[C@H](CCCNC(=N)N)NC(=O)[C@H](CCCNC(=N)N)NC(=O)[C@@H]2CCCN2C(=O)[C@H](C(C)C)NC(=O)[C@H](CCCNC(=N)N)NC(=O)[C@H](Cc2ccccc2)NC(=O)[C@H](CCCNC(N)=O)NC(=O)[C@H](CCCNC(=N)N)NC(=O)[C@H](Cc2ccc(O)cc2)NC(=O)[C@@H]2CCCN2C(=O)[C@H]2CCCN2C(=O)[C@H](CCCCN)NC(=O)[C@H](CCCNC(N)=O)NC(=O)[C@H](Cc2ccc(O)cc2)NC1=O) [Example 22] |  | 300 |
| cyclo(YR[Cit]CRG[dP]RRWCY[Cit]K[dP][A8″‑42]) (disulfide 4-11) [Example 116] | 14.5 |  |
| cyclo(YR[Cit]CRG[dP]RR[2Nal]CYQK[dP]P) (disulfide 4-11; SMILES N=C(N)NCCC[C@@H]1NC(=O)[C@@H]2CSSC[C@H](NC(=O)[C@H](Cc3ccc4ccccc4c3)NC(=O)[C@H](CCCNC(=N)N)NC(=O)[C@H](CCCNC(=N)N)NC(=O)[C@H]3CCCN3C(=O)CNC1=O)C(=O)N[C@@H](Cc1ccc(O)cc1)C(=O)N[C@@H](CCC(N)=O)C(=O)N[C@@H](CCCCN)C(=O)N1CCC[C@@H]1C(=O)N1CCC[C@H]1C(=O)N[C@@H](Cc1ccc(O)cc1)C(=O)N[C@@H](CCCNC(=N)N)C(=O)N[C@@H](CCCNC(N)=O)C(=O)N2) [Example 115] | 2.7 |  |
| cyclo(YR[Cit]FRF[dP]RR[2Nal]VY[Cit]K[dP]P) (SMILES CC(C)[C@@H]1NC(=O)[C@H](Cc2ccc3ccccc3c2)NC(=O)[C@H](CCCNC(=N)N)NC(=O)[C@H](CCCNC(=N)N)NC(=O)[C@H]2CCCN2C(=O)[C@H](Cc2ccccc2)NC(=O)[C@H](CCCNC(=N)N)NC(=O)[C@H](Cc2ccccc2)NC(=O)[C@H](CCCNC(N)=O)NC(=O)[C@H](CCCNC(=N)N)NC(=O)[C@H](Cc2ccc(O)cc2)NC(=O)[C@@H]2CCCN2C(=O)[C@H]2CCCN2C(=O)[C@H](CCCCN)NC(=O)[C@H](CCCNC(N)=O)NC(=O)[C@H](Cc2ccc(O)cc2)NC1=O) [Example 23] |  | 1550 |
| cyclo(YRTCRG[dP][4Pal]RWCYQK[dP]P) (disulfide 4-11; SMILES C[C@@H](O)[C@@H]1NC(=O)[C@H](CCCNC(=N)N)NC(=O)[C@H](Cc2ccc(O)cc2)NC(=O)[C@@H]2CCCN2C(=O)[C@H]2CCCN2C(=O)[C@H](CCCCN)NC(=O)[C@H](CCC(N)=O)NC(=O)[C@H](Cc2ccc(O)cc2)NC(=O)[C@@H]2CSSC[C@H](NC1=O)C(=O)N[C@@H](CCCNC(=N)N)C(=O)NCC(=O)N1CCC[C@@H]1C(=O)N[C@@H](Cc1ccncc1)C(=O)N[C@@H](CCCNC(=N)N)C(=O)N[C@@H](Cc1c[nH]c3ccccc13)C(=O)N2) [Example 118] | 7.6 |  |
| cyclo(YR[Cit]CRG[dP]R[Orn]WCY[Cit]K[dP]P) (disulfide 4-11; SMILES N=C(N)NCCC[C@@H]1NC(=O)[C@@H]2CSSC[C@H](NC(=O)[C@H](Cc3c[nH]c4ccccc34)NC(=O)[C@H](CCCN)NC(=O)[C@H](CCCNC(=N)N)NC(=O)[C@H]3CCCN3C(=O)CNC1=O)C(=O)N[C@@H](Cc1ccc(O)cc1)C(=O)N[C@@H](CCCNC(N)=O)C(=O)N[C@@H](CCCCN)C(=O)N1CCC[C@@H]1C(=O)N1CCC[C@H]1C(=O)N[C@@H](Cc1ccc(O)cc1)C(=O)N[C@@H](CCCNC(=N)N)C(=O)N[C@@H](CCCNC(N)=O)C(=O)N2) [Example 117] | 3.4 |  |
| cyclo(YR[Cit]CRG[dP]RRWCY[Cit]Q[dP]P) (disulfide 4-11; SMILES N=C(N)NCCC[C@@H]1NC(=O)[C@@H]2CSSC[C@H](NC(=O)[C@H](Cc3c[nH]c4ccccc34)NC(=O)[C@H](CCCNC(=N)N)NC(=O)[C@H](CCCNC(=N)N)NC(=O)[C@H]3CCCN3C(=O)CNC1=O)C(=O)N[C@@H](Cc1ccc(O)cc1)C(=O)N[C@@H](CCCNC(N)=O)C(=O)N[C@@H](CCC(N)=O)C(=O)N1CCC[C@@H]1C(=O)N1CCC[C@H]1C(=O)N[C@@H](Cc1ccc(O)cc1)C(=O)N[C@@H](CCCNC(=N)N)C(=O)N[C@@H](CCCNC(N)=O)C(=O)N2) [Example 121] | 6.5 |  |
